The values that follow come from patent US20260240907A1 (published 2026).

Assay [1] addresses T1, KRAS G12V peptide on HLA-A*02:01 (human).
T1 peptide: KLVVVGAVGV
Kind of assay: multimer staining.

Assay [2] concerns the target T2, KRAS G12D peptide on HLA-A*11:01 (human).
T2 peptide: VVVGADGVGK
Kind of assay: multimer staining.

B1: TCR8 (TCR, V domains shown)
Valpha: GEDVEQSLFLSVREGDSSVINCTYTDSSSTYLYWYKQEPGAGLQLLTYIFSNMDMKQDQRLTVLLNKKDKHLSLRIADTQTGDSAIYFCAESIRDTDKLIFGTGTRLQVFP
Vbeta: GAVVSQHPSRVICKSGTSVKIECRSLDFQATTMFWYRQFPKKSLMLMATSNEGSKATYEQGVEKDKFLINHASLTLSTLTVTSAHPEDSSFYICSARDTSGTTRNEQFFGPGTRLTVL
As to B1, the binding result in assay [1] is listed as “recognises”.

B2: TCR15 (TCR, V domains shown)
Valpha: GEDVEQSLFLSVREGDSSVINCTYTDSSSTYLYWYKQEPGAGLQLLTYIFSNMDMKQDQRLTVLLNKKDKHLSLRIADTQTGDSAIYFCADFLRDTDKLIFGTGTRLQVFP
Vbeta: GAVVSQHPSWVICKSGTSVKIECRSLDFQATTMFWYRQFPKQSLMLMATSNEGSKATYEQGVEKDKFLINHASLTLSTLTVTSAHPEDSSFYICSARDRTSTDTQYFGPGTRLTVL
Consider B2, for which the binding result in assay [1] is “recognises”.

B3: TCR16 (TCR, V domains shown)
Valpha: DQQVKQNSPSLSVQEGRISILNCDYTNSMFDYFLWYKKYPAEGPTFLISISSIKDKNEDGRFTVFLNKSAKHLSLHIVPSQPGDSAVYFCAVNRDDKIIFGKGTRLHILP
Vbeta: DTGVSQDPRHKITKRGQNVTFRCDPISEHNRLYWYRQTLGQGPEFLTYFQNEAQLEKSRLLSDRFSAERPKGSFSTLEIQRTEQGDSAMYLCASSSELAGGINEQFFGPGTRLTVL
In the case of B3, the binding result in assay [1] was “recognises”.

B4: TCR1 (TCR, V domains shown)
Valpha: AQKVTQAQTEISVVEKEDVTLDCVYETRDTTYYLFWYKQPPSGELVFLIRRNSFDEQNEISGRYSWNFQKSTSSFNFTITASQVVDSAVYFCALSEVTGAGSYQLTFGKGTKLSVIP
Vbeta: DGGITQSPKYLFRKEGQNVTLSCEQNLNHDAMYWYRQDPGQGLRLIYYSQIVNDFQKGDIAEGYSVSREKKESFPLTVTSAQKNPTAFYLCASSIGAGQHNSPLHFGNGTRLTVT
With B4, the binding result in assay [2] is reported as “recognises”.

B5: TCR5 (TCR, V domains shown)
Valpha: ILNVEQSPQSLHVQEGDSTNFTCSFPSSNFYALHWYRWETAKSPEALFVMTLNGDEKKKGRISATLNTKEGYSYLYIKGSQPEDSATYLCASADGANNLFFGTGTRLTVIP
Vbeta: SAVISQKPSRDICQRGTSLTIQCQVDSQVTMMFWYRQQPRQSLTLIATANQGSEATYESGFVIDKFPISRPNLTFSTLTVSNMSPEDSSIYLCSVGPSGTGPGYTFGSGTRLTVV
In the case of B5, in assay [2], the binding result is on record as “recognises”.

B6: TCR2 (TCR, V domains shown)
Valpha: AQKVTQAQTEISVVEKEDVTLDCVYETRDTTYYLFWYKQPPSGELVFLIRRNSFDEQNEISGRYSWNFQKSTSSFNFTITASQVVDSAVYFCALSEGSNYKLTFGKGTLLTVNP
Vbeta: EAGVAQSPRYKIIEKRQSVAFWCNPISGHATLYWYQQILGQGPKLLIQFQNNGVVDDSQLPKDRFSAERLKGVDSTLKIQPAKLEDSAVYLCASSSTGGTGETQYFGPGTRLLVL
On to B6, for which, in assay [2], the binding result is “recognises”.

B7: TCR4 (TCR, V domains shown)
Valpha: GEDVEQSLFLSVREGDSSVINCTYTDSSSTYLYWYKQEPGAGLQLLTYIFSNMDMKQDQRLTVLLNKKDKHLSLRIADTQTGDSAIYFCAERRGNMLTFGGGTRLMVKP
Vbeta: NAGVTQTPKFRILKIGQSMTLQCTQDMNHNYMYWYRQDPGMGLKLIYYSVGAGITDKGEVPNGYNVSRSTTEDFPLRLELAAPSQTSVYFCASSRTSGLTDTQYFGPGTRLTVL
With B7, the binding result in assay [2] was “recognises”.

B8: TCR3 (TCR, V domains shown)
Valpha: AQKITQTQPGMFVQEKEAVTLDCTYDTSDPSYGLFWYKQPSSGEMIFLIYQGSYDQQNATEGRYSLNFQKARKSANLVISASQLGDSAMYFCVGNEKLTFGTGTRLTIIP
Vbeta: KAGVTQTPRYLIKTRGQQVTLSCSPISGHRSVSWYQQTPGQGLQFLFEYFSETQRNKGNFPGRFSGRQFSNSRSEMNVSTLELGDSALYLCASSLATGGYNSPLHFGNGTRLTVT
Take B8: the binding result in assay [2] was “recognises”.

B9: TCR14 (TCR, V domains shown)
Valpha: AQKITQTQPGMFVQEKEAVTLDCTYDTSDPSYGLFWYKQPSSGEMIFLIYQGSYDQQNATEGRYSLNFQKARKSANLVISASQLGDSAMYFCAMRGMDSSYKLIFGSGTRLLVRP
Vbeta: DVKVTQSSRYLVKRTGEKVFLECVQDMDHENMFWYRQDPGLGLRLIYFSYDVKMKEKGDIPEGYSVSREKKERFSLILESASTNQTSMYLCATRTGQQAGSKDTDTQYFGPGTRLTVL
Regarding B9, in assay [1], the binding result is reported as “recognises”.

B10: TCR6 (TCR, V domains shown)
Valpha: AQTVTQSQPEMSVQEAETVTLSCTYDTSESDYYLFWYKQPPSRQMILVIRQEAYKQQNATENRFSVNFQKAAKSFSLKISDSQLGDAAMYFCAYTNSGNTPLVFGKGTRLSVIA
Vbeta: DAGVIQSPRHEVTEMGQEVTLRCKPISGHDYLFWYRQTMMRGLELLIYFNNNVPIDDSGMPEDRFSAKMPNASFSTLKIQPSEPRDSAVYFCASKPGPRSWREGAFFGQGTRLTVV
On to B10, for which, in assay [2], the binding result is reported as “recognises”.

B11: TCR10 (TCR, V domains shown)
Valpha: GEDVEQSLFLSVREGDSSVINCTYTDSSSTYLYWYKQEPGAGLQLLTYIFSNMDMKQDQRLTVLLNKKDKHLSLRIADTQTGDSAIYFCAEMKDTDKLIFGTGTRLQVFP
Vbeta: DGGITQSPKYLFRKEGQNVTLSCEQNLNHDAMYWYRQDPGQGLRLIYYSQIVNDFQKGDIAEGYSVSREKKESFPLTVTSAQKNPTAFYLCASTQVGTGELFFGEGSRLTVL
As for B11, the binding result in assay [1] is on record as “recognises”.

B12: TCR11 (TCR, V domains shown)
Valpha: GEDVEQSLFLSVREGDSSVINCTYTDSSSTYLYWYKQEPGAGLQLLTYIFSNMDMKQDQRLTVLLNKKDKHLSLRIADTQTGDSAIYFCAEMKDTDKLIFGTGTRLQVFP
Vbeta: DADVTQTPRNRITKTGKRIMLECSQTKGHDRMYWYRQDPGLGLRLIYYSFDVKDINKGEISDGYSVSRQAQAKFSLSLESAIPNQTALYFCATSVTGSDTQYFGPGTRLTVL
Take B12: the binding result in assay [1] was “recognises”.

B13: TCR12 (TCR, V domains shown)
Valpha: GEDVEQSLFLSVREGDSSVINCTYTDSSSTYLYWYKQEPGAGLQLLTYIFSNMDMKQDQRLTVLLNKKDKHLSLRIADTQTGDSAIYFCAEIRDTGKLIFGQGTTLQVKP
Vbeta: DVKVTQSSRYLVKRTGEKVFLECVQDMDHENMFWYRQDPGLGLRLIYFSYDVKMKEKGDIPEGYSVSREKKERFSLILESASTNQTSMYLCASSRQGTDTQYFGPGTRLTVL
Regarding B13, the binding result in assay [1] is “recognises”.

B14: TCR13 (TCR, V domains shown)
Valpha: GEDVEQSLFLSVREGDSSVINCTYTDSSSTYLYWYKQEPGAGLQLLTYIFSNMDMKQDQRLTVLLNKKDKHLSLRIADTQTGDSAIYFCAERRDTDKLIFGTGTRLQVFP
Vbeta: GAVVSQHPSWVICKSGTSVKIECRSLDFQATTMFWYRQFPKQSLMLMATSNEGSKATYEQGVEKDKFLINHASLTLSTLTVTSAHPEDSSFYICSAWGANTGELFFGEGSRLTVL
Consider B14, for which, in assay [1], the binding result is reported as “recognises”.

B15: TCR9 (TCR, V domains shown)
Valpha: GEDVEQSLFLSVREGDSSVINCTYTDSSSTYLYWYKQEPGAGLQLLTYIFSNMDMKQDQRLTVLLNKKDKHLSLRIADTQTGDSAIYFCAEIPGDSSYKLIFGSGTRLLVRP
Vbeta: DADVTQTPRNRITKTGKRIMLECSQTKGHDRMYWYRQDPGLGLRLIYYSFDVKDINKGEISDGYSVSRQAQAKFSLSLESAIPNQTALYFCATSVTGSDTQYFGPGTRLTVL
Regarding B15, the binding result in assay [1] is recorded as “recognises”.
